13 molecules from article PMC8523659 (Scientific Reports, 2021) can be followed below.

To fix the notation:
B1: single-domain VHH antibody Z18 (VHH)
VHH: QVQLVESGGGLVQAGDSLRLSCAASGRTFSGYAMGWFRQAPGKEREFVARINWSGTLTYYADSVKGRFTGSRDNAKNTVYLQMNSLKPEDTAVYYCAQRGDSGSNYDPSGYSYWGQGTQVTVSS
notes: pRA2 vector with N-terminal pelB signal peptide; also called wild-type Z18; source: E. coli BL21 (DE3), purified (Ni-NTA, SEC); not shown: hexa-histidine, C-terminal, kept
B2: Z18-R50L (VHH)
VHH: QVQLVESGGGLVQAGDSLRLSCAASGRTFSGYAMGWFRQAPGKELEFVARINWSGTLTYYADSVKGRFTGSRDNAKNTVYLQMNSLKPEDTAVYYCAQRGDSGSNYDPSGYSYWGQGTQVTVSS
notes: IMGT numbering; the methods describe vector and expression for Z18 and Z26; source: E. coli BL21 (DE3), purified (Ni-NTA, SEC)
B3: Z18-N85S (VHH)
VHH: QVQLVESGGGLVQAGDSLRLSCAASGRTFSGYAMGWFRQAPGKEREFVARINWSGTLTYYADSVKGRFTGSRDNAKSTVYLQMNSLKPEDTAVYYCAQRGDSGSNYDPSGYSYWGQGTQVTVSS
notes: as for B2
B4: Z18-I56V (VHH)
VHH: QVQLVESGGGLVQAGDSLRLSCAASGRTFSGYAMGWFRQAPGKEREFVARVNWSGTLTYYADSVKGRFTGSRDNAKNTVYLQMNSLKPEDTAVYYCAQRGDSGSNYDPSGYSYWGQGTQVTVSS
notes: as for B2
B5: single-domain VHH antibody Z26 (VHH)
VHH: QLQLVESGGGLVQAGDSLRLSCAASGRTFSDYAMGWFRQAPGKELEFVARVNWSGLLTYYADSVKGRFTASRDNAKSTVYLQMNSLKPEDTAVYYCAQRGDSGSNFDPSGYRYWGQGTQVTVSS
notes: differs from Z18 at nine residues; pRA2 vector with N-terminal pelB signal peptide; also called wild-type Z26; source: E. coli BL21 (DE3), purified (Ni-NTA, SEC); not shown: hexa-histidine, C-terminal, kept
B6: Z18-R50L/G78A/S133R (VHH)
VHH: QVQLVESGGGLVQAGDSLRLSCAASGRTFSGYAMGWFRQAPGKELEFVARINWSGTLTYYADSVKGRFTASRDNAKNTVYLQMNSLKPEDTAVYYCAQRGDSGSNYDPSGYRYWGQGTQVTVSS
notes: as for B2
B7: Z18-T61L (VHH)
VHH: QVQLVESGGGLVQAGDSLRLSCAASGRTFSGYAMGWFRQAPGKEREFVARINWSGLLTYYADSVKGRFTGSRDNAKNTVYLQMNSLKPEDTAVYYCAQRGDSGSNYDPSGYSYWGQGTQVTVSS
notes: as for B2
B8: Z18-V2L (VHH)
VHH: QLQLVESGGGLVQAGDSLRLSCAASGRTFSGYAMGWFRQAPGKEREFVARINWSGTLTYYADSVKGRFTGSRDNAKNTVYLQMNSLKPEDTAVYYCAQRGDSGSNYDPSGYSYWGQGTQVTVSS
notes: as for B2
B9: Z18-G32D (VHH)
VHH: QVQLVESGGGLVQAGDSLRLSCAASGRTFSDYAMGWFRQAPGKEREFVARINWSGTLTYYADSVKGRFTGSRDNAKNTVYLQMNSLKPEDTAVYYCAQRGDSGSNYDPSGYSYWGQGTQVTVSS
notes: as for B2
B10: Z18-Y114F (VHH)
VHH: QVQLVESGGGLVQAGDSLRLSCAASGRTFSGYAMGWFRQAPGKEREFVARINWSGTLTYYADSVKGRFTGSRDNAKNTVYLQMNSLKPEDTAVYYCAQRGDSGSNFDPSGYSYWGQGTQVTVSS
notes: as for B2
B11: Z18-S133R (VHH)
VHH: QVQLVESGGGLVQAGDSLRLSCAASGRTFSGYAMGWFRQAPGKEREFVARINWSGTLTYYADSVKGRFTGSRDNAKNTVYLQMNSLKPEDTAVYYCAQRGDSGSNYDPSGYRYWGQGTQVTVSS
notes: as for B2
B12: Z18-G32D/R50L/G78A/S133R (VHH)
VHH: QVQLVESGGGLVQAGDSLRLSCAASGRTFSDYAMGWFRQAPGKELEFVARINWSGTLTYYADSVKGRFTASRDNAKNTVYLQMNSLKPEDTAVYYCAQRGDSGSNYDPSGYRYWGQGTQVTVSS
notes: as for B2
B13: Z18-G78A (VHH)
VHH: QVQLVESGGGLVQAGDSLRLSCAASGRTFSGYAMGWFRQAPGKEREFVARINWSGTLTYYADSVKGRFTASRDNAKNTVYLQMNSLKPEDTAVYYCAQRGDSGSNYDPSGYSYWGQGTQVTVSS
notes: as for B2

In one assay the target is T1, human serum albumin (Homo sapiens, UniProt P02768).
T1 construct: human serum albumin (HSA), purchased from Sigma-Aldrich Japan; dissolved in phosphate buffer and dialysed; also called HSA; source: bought: Sigma-Aldrich Japan
Briefly: SPR; Biacore T200; HSA immobilised on CM5 chip by amine coupling (~1000 RU); increasing concentrations of antibodies injected at 30 μl/min; PBS with 0.05% Tween-20; global fit, 1:1 Langmuir model. The conditions noted are these: both partners purified. (SPR reads the build-up and loss of mass on a sensor chip optically.)
What is called Kd is the constant that tells how readily two partners part at equilibrium. High values mean weaker binding, low ones tighter binding. As for B1, the affinity, expressed as Kd, was 175 nM.

A further assay has as its target T1, human serum albumin. Described as above. The note with it: both partners purified. The source holds these as a separate data set.
For orientation: koff means the first-order rate constant of dissociation. The low end stands for slow dissociation, the high end for fast dissociation. By kon is commonly meant the second-order rate constant of association. High values mean fast association, low ones slow association. Regarding B1, the Kd was 334 nM, the koff amounted to 0.259 s⁻¹ and the on-rate constant (kon) is 774000 M⁻¹ s⁻¹.

In the case of B2, the Kd amounted to 412 nM, the koff was 0.284 s⁻¹ and the kon stood at 689000 M⁻¹ s⁻¹.

Take B3: the Kd came out at 344 nM, the off-rate constant (koff) came to 0.238 s⁻¹ and the kon came out at 692000 M⁻¹ s⁻¹.

Molecule B4 displayed a Kd of 296 nM, a koff of 0.22 s⁻¹ and an association rate constant (kon) of 741000 M⁻¹ s⁻¹.

On to B5, for which the Kd was 0.54 nM, the dissociation rate constant (koff) came to 0.000816 s⁻¹ and the association rate constant (kon) was found to be 1.51e+06 M⁻¹ s⁻¹.

B6: the affinity, expressed as Kd, was 447 nM; the dissociation rate constant (koff) is 0.785 s⁻¹; the on-rate (kon) is 1.76e+06 M⁻¹ s⁻¹.

Turning to B7, the Kd came out at 8.63 nM, the koff stood at 0.037 s⁻¹ and the kon turned out to be 4.33e+06 M⁻¹ s⁻¹.

In turn, B8 showed a Kd of 366 nM, a koff of 0.276 s⁻¹ and an on-rate (kon) of 754000 M⁻¹ s⁻¹.

B9 gave a dissociation constant Kd of 172 nM, a koff of 0.12 s⁻¹ and an on-rate constant (kon) of 696000 M⁻¹ s⁻¹.

B10 displayed a Kd of 12.9 nM, an off-rate (koff) of 0.096 s⁻¹ and an association rate constant (kon) of 7.45e+06 M⁻¹ s⁻¹.

B11 came in with a dissociation constant (Kd) of 67.2 nM, a koff of 0.078 s⁻¹ and a kon of 1.16e+06 M⁻¹ s⁻¹.

Molecule B12 registered a Kd of 797 nM, a dissociation rate constant (koff) of 0.412 s⁻¹ and a kon of 516000 M⁻¹ s⁻¹.

Molecule B13 had a dissociation constant Kd of 7110 nM, a koff of 1.1 s⁻¹ and a kon of 155000 M⁻¹ s⁻¹.
